IntAct's records for PubMed 12718882

B1: Splicing factor 1 (Homo sapiens), Q15637 (parent)
chain: MATGANATPLDFPSKKRKRSRWNQDTMEQKTVIPGMPTVIPPGLTREQERAYIVQLQIEDLTRKLRTGDLGIPPNPEDRSPSPEPIYNSEGKRLNTREFRTRKKLEEERHNLITEMVALNPDFKPPADYKPPATRVSDKVMIPQDEYPEINFVGLLIGPRGNTLKNIEKECNAKIMIRGKGSVKEGKVGRKDGQMLPGEDEPLHALVTANTMENVKKAVEQIRNILKQGIETPEDQNDLRKMQLRELARLNGTLREDDNRILRPWQSSETRSITNTTVCTKCGGAGHIASDCKFQRPGDPQSAQDKARMDKEYLSLMAELGEAPVPASVGSTSGPATTPLASAPRPAAPANNPPPPSLMSTTQSRPPWMNSGPSESRPYHGMHGGGPGGPGGGPHSFPHPLPSLTGGHGGHPMQHNPNGPPPPWMQPPPPPMNQGPHPPGHHGPPPMDQYLGSTPVGSGVYRLHQGKGMMPPPPMGMMPPPPPPPSGQPPPPPSGPLPPWQQQQQQPPPPPPPSSSMASSTPLPWQQNTTTTTTSAGTGSIPPWQQQQAAAAASPGAPQMQGNPTMVPLPPGVQPPLPPGAPPPPPPPPPGSAGMMYAPPPPPPPPMDPSNFVTMMGMGVAGMPPFGMPPAPPPPPPQN
B2: Splicing factor U2AF 65 kDa subunit (Homo sapiens), P26368 (parent)
chain: MSDFDEFERQLNENKQERDKENRHRKRSHSRSRSRDRKRRSRSRDRRNRDQRSASRDRRRRSKPLTRGAKEEHGGLIRSPRHEKKKKVRKYWDVPPPGFEHITPMQYKAMQAAGQIPATALLPTMTPDGLAVTPTPVPVVGSQMTRQARRLYVGNIPFGITEEAMMDFFNAQMRLGGLTQAPGNPVLAVQINQDKNFAFLEFRSVDETTQAMAFDGIIFQGQSLKIRRPHDYQPLPGMSENPSVYVPGVVSTVVPDSAHKLFIGGLPNYLNDDQVKELLTSFGPLKAFNLVKDSATGLSKGYAFCEYVDINVTDQAIAGLNGMQLGDKKLLVQRASVGAKNATLVSPPSTINQTPVTLQVPGLMSSQVQMGGHPTEVLCLMNMVLPEELLDDEEYEEIVEDVRDECSKYGLVKSIEIPRPVDGVEVPGCGKIFVEFTSVFDCQKAMQGLTGRKFANRVVVTKYCDPDSYHRRDFW
partner: B1 chain

Variants of: B1
Details: with U2AF2, P26368

Variant | effect of a mutation on the interaction
K15E;K16E;R17D | disrupting interaction
R19E | with no effect
R21D | disrupting interaction
R21K | with no effect
K16E;R17D;K18E | disrupting interaction
W22F | with no effect
W22A | disrupting interaction
N23A | with no effect

Results, then the variant that gave them:

effect of a mutation on the interaction | Variant
with no effect | K16A;R17A;K18A
decreasing interaction | K15E
with no effect | Q24A
with no effect | R17E

Variants of: B2
Details: with sf01_human SF1, Q15637

Variant | effect of a mutation on the interaction
E396A;E397A | with no effect
E396G;E397A | disrupting interaction

Now from value to variant:

effect of a mutation on the interaction | Variant
with no effect | E387G;E388A
disrupting interaction | E387R;E388R
decreasing interaction | D391A;D392A;E393A;E394A
disrupting interaction | E396K;E397K
decreasing interaction | F454A
decreasing interaction | F454Y
disrupting interaction | D391R;D392R;E393K;E394K
